B1: 26S proteasome non-ATPase regulatory subunit 4 homolog (Arabidopsis thaliana (Mouse-ear cress)), P55034 (parent)
chain: MVLEATMICIDNSEWMRNGDYSPSRLQAQTEAVNLLCGAKTQSNPENTVGILTMAGKGVRVLTTPTSDLGKILACMHGLDVGGEINLTAAIQIAQLALKHRQNKNQRQRIIVFAGSPIKYEKKALEIVGKRLKKNSVSLDIVNFGEDDDEEKPQKLEALLTAVNNNDGSHIVHVPSGANALSDVLLSTPVFTGDEGASGYVSAAAAAAAAGGDFDFGVDPNIDPELALALRVSMEEERARQEAAAKKAADEAGQKDKDGDTASASQETVARTTDKNAEPMDEDSALLDQAIAMSVGDVNMSEAADEDQDLALALQMSMSGEESSEATGAGNNLLGNQAFISSVLSSLPGVDPNDPAVKELLASLPDESKRTEEEESSSKKGEDEKK
B2: Proteasomal ubiquitin receptor ADRM1 (Homo sapiens), Q16186 (parent)
chain: MTTSGALFPSLVPGSRGASNKYLVEFRAGKMSLKGTTVTPDKRKGLVYIQQTDDSLIHFCWKDRTSGNVEDDLIIFPDDCEFKRVPQCPSGRVYVLKFKAGSKRLFFWMQEPKTDQDEEHCRKVNEYLNNPPMPGALGASGSSGHELSALGGEGGLQSLLGNMSHSQLMQLIGPAGLGGLGGLGALTGPGLASLLGSSGPPGSSSSSSSRSQSAAVTPSSTTSSTRATPAPSAPAAASATSPSPAPSSGNGASTAASPTQPIQLSDLQSILATMNVPAGPAGGQQVDLASVLTPEIMAPILANADVQERLLPYLPSGESLPQTADEIQNTLTSPQFQQALGMFSAALASGQLGPLMCQFGLPAEAVEAANKGDVEAFAKAMQNNAKPEQKEGDTKDKKDEEEDMSLD
B3: 26S proteasome regulatory subunit RPN10 (Saccharomyces cerevisiae), P38886 (parent)
chain: MVLEATVLVIDNSEYSRNGDFPRTRFEAQIDSVEFIFQAKRNSNPENTVGLISGAGANPRVLSTFTAEFGKILAGLHDTQIEGKLHMATALQIAQLTLKHRQNKVQHQRIVAFVCSPISDSRDELIRLAKTLKKNNVAVDIINFGEIEQNTELLDEFIAAVNNPQEETSHLLTVTPGPRLLYENIASSPIILEEGSSGMGAFGGSGGDSDANGTFMDFGVDPSMDPELAMALRLSMEEEQQRQERLRQQQQQQDQPEQSEQPEQHQDK
partner: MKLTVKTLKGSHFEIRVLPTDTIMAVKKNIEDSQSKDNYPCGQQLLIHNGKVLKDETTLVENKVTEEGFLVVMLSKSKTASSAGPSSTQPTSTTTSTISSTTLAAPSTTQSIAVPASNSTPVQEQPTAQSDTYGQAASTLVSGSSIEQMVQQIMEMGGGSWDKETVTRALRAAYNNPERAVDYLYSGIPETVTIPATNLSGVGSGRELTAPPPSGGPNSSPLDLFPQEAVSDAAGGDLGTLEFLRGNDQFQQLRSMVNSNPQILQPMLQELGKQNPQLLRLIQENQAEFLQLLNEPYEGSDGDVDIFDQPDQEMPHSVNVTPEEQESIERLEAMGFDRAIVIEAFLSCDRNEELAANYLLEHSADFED
B4: 26S proteasome non-ATPase regulatory subunit 4 (Homo sapiens), P55036 (parent)
chain: MVLESTMVCVDNSEYMRNGDFLPTRLQAQQDAVNIVCHSKTRSNPENNVGLITLANDCEVLTTLTPDTGRILSKLHTVQPKGKITFCTGIRVAHLALKHRQGKNHKMRIIAFVGSPVEDNEKDLVKLAKRLKKEKVNVDIINFGEEEVNTEKLTAFVNTLNGKDGTGSHLVTVPPGPSLADALISSPILAGEGGAMLGLGASDFEFGVDPSADPELALALRVSMEEQRQRQEEEARRAAAASAAEAGIATTGTEDSDDALLKMTISQQEFGRTGLPDLSSMTEEEQIAYAMQMSLQGAEFGQAESADIDASSAMDTSEPAKEEDDYDVMQDPEFLQSVLENLPGVDPNNEAIRNAMGSLASQATKDGKKDKKEEDKK
partner: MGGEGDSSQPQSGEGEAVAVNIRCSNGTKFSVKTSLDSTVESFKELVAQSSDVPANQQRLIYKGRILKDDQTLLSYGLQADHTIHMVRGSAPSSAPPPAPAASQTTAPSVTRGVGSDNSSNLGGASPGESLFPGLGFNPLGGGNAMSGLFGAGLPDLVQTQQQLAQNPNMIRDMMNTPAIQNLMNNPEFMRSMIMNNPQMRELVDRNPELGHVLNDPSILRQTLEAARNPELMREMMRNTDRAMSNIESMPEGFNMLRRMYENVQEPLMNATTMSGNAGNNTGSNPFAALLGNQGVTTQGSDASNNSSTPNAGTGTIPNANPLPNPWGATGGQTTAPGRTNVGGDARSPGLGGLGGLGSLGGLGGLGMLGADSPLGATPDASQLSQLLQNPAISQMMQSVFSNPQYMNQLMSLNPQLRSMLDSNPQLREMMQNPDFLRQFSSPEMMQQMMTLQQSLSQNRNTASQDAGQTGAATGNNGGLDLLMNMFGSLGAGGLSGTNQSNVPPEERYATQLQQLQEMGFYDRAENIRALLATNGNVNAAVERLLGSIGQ
B5: 26S proteasome regulatory subunit RPN13 (Saccharomyces cerevisiae), O13563 (parent)
chain: MSMSSTVIKFRAGVCEYNEDSRLCTPIPVQGEIEIKPNEEEELGFWDFEWRPTEKPVGRELDPISLILIPGETMWVPIKSSKSGRIFALVFSSNERYFFWLQEKNSGNLPLNELSAKDKEIYNKMIGVLNNSSESDEEESNDEKQKAQDVDVSMQD

The variants in one assay derive from B1. The settings on record: with dsk2_yeast DSK2, P48510.
On to L310N;A311N;L312N;A313D;L314N, for which the “effect of a mutation on the interaction” value is on record as “with no effect”.

Variants of B1 are the subject of the next assay. The settings on record: with ubql2_human UBQLN2, Q9UHD9.
In the case of L310N;A311N;L312N;A313D;L314N, the “effect of a mutation on the interaction” value is reported as “with no effect”.

Variants of B1 are the subject of the next assay. The settings on record: with rd23b_human RAD23B.
Take L310N;A311N;L312N;A313D;L314N: the “effect of a mutation on the interaction” value was “disrupting interaction strength”.

A further assay covers variants of B2. The note with it: with ubql2_human UBQLN2, Q9UHD9.
As for F98R, the “effect of a mutation on the interaction” value is “disrupting interaction”.

Variants of B2 are the subject of the next assay. The note with it: with dsk2_yeast DSK2, P48510.
In the case of F98R, the “effect of a mutation on the interaction” value was “disrupting interaction”.

Variants of B2 are the subject of a further assay. The note with it: with ubc_human UBC.
Consider F98R, for which the “effect of a mutation on the interaction” value was “decreasing interaction strength”.

The variants in another assay derive from B2. The settings on record: with ubc_human UBC. This is another data set of the same source.
For F98R, the “effect of a mutation on the interaction” value was “decreasing interaction”.

Variants of B2 are the subject of a further assay. The settings on record: with ubql2_human UBQLN2, Q9UHD9. This is another data set of the same source.
In the case of L56A, the “effect of a mutation on the interaction” value is reported as “disrupting interaction”.

Another assay covers variants of B2. The settings on record: with dsk2_yeast DSK2, P48510. The source holds these as a separate data set.
Consider L56A, for which the “effect of a mutation on the interaction” value was “disrupting interaction”.

Another assay covers variants of B2. The note with it: with ubc_human UBC. This is another data set of the same source.
Consider L56A, for which the “effect of a mutation on the interaction” value was “decreasing interaction”.

In the next assay the parent is B2. The note with it: with ubql1_human UBQLN1, Q9UMX0.
Regarding D79N, the “effect of a mutation on the interaction” value is given as “decreasing interaction”.

The variants in another assay derive from B2. The settings on record: with dsk2_yeast DSK2, P48510. The source holds these as a separate data set.
Consider D79N, for which the “effect of a mutation on the interaction” value was “disrupting interaction”.

In another assay the parent is B2. The settings on record: with ubc_human UBC. This is another data set of the same source.
For the variant D79N, the “effect of a mutation on the interaction” value is “decreasing interaction”.

Variants of B2 are the subject of the next assay. The note with it: with ubql2_human UBQLN2, Q9UHD9. The source holds these as a separate data set.
F76R: the “effect of a mutation on the interaction” value is given as “disrupting interaction”.

In the next assay the parent is B2. The settings on record: with dsk2_yeast DSK2, P48510. This is another data set of the same source.
Regarding F76R, the “effect of a mutation on the interaction” value was “disrupting interaction”.

The variants in another assay derive from B2. The settings on record: with ubc_human UBC. This is another data set of the same source.
F76R: the “effect of a mutation on the interaction” value is on record as “decreasing interaction”.

Variants of B3 are the subject of another assay. The settings on record: with rd23a_arath RAD23A.
L228N;A229N;M230N;A231N;L232N: the “effect of a mutation on the interaction” value is “disrupting interaction strength”.

In another assay the parent is B4. The settings on record: with dsk2b_arath DSK2B.
Take L216N;A217N;L218N;A219N;L220N: the “effect of a mutation on the interaction” value is on record as “with no effect”. With I287N;A288N;Y289N;A290N;M291N, the “effect of a mutation on the interaction” value was “disrupting interaction strength”. As to L216N;A217N;L218N;A219N;L220N;I287N;A288N;Y289N;A290N;M291N, the “effect of a mutation on the interaction” value is on record as “disrupting interaction strength”.

Variants of B5 are the subject of the next assay. The note with it: with dsk2_yeast DSK2, P48510.
As for L43A, the “effect of a mutation on the interaction” value was “decreasing interaction”.

Variants of B5 are the subject of the next assay. The note with it: with dsk2_yeast DSK2, P48510. The source holds these as a separate data set.
On to E72Q, for which the “effect of a mutation on the interaction” value is reported as “disrupting interaction”.

Variants of B5 are the subject of the next assay. The settings on record: with dsk2_yeast DSK2, P48510. The source holds these as a separate data set.
With F91R, the “effect of a mutation on the interaction” value is given as “disrupting interaction”.
